± gives the uncertainty stated by the source.
Experiment: protein stability index of a GFP-peptide fusion (yeast GPS) (PSI 1-4); higher = more stable; sorted into four equal gates, so the index is relative within each strain
Conditions: doa10∆
Outline: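 Tiled 17-residue peptides from yeast proteins were fused downstream of GFP on a plasmid that also expresses Cherry, and the pooled library was carried in yeast. Mid-log cultures grown in leucine-free medium were sorted into four equal gates by GFP/Cherry fluorescence ratio. Plasmids from each gate were PCR-amplified and Illumina-sequenced, and reads were assigned to strains by barcodes. Each peptide's protein stability index is the sum, over gates, of the gate's read frequency multiplied by its gate number.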

| Sequence | protein stability index |
| --- | --- |
| KLKEMQKVLNAHRQRAM [SMC4] | 1.84 ± 0.099 |
| KLKQGQKLFVQVSNFAP [GAL11] | 2.74 ± 0.063 |
| KLLDDNPTEFDWPTYVD [SRB8] | 3.11 ± 0.072 |
| KLLFQELLSMNIAPRLR [RET1] | 1.35 ± 0.052 |
| KLLGIGDIESLFEQLQT [SRP54] | 1.58 ± 0.062 |
| KLNKKLQHLRSRCHLVT [SRP68] | 3.23 ± 0.11 |
| KLRARLVEYGFDPSRIK [SMC2] | 2.73 ± 0.06 |
| KLREPVARFLHFNGIRR [ITC1] | 2.04 ± 0.088 |
| KLRRECSNPTCGAGVFL [RPS31] | 1.78 ± 0.048 |
| KLSCIQLNCIDTQFTKL [SRB8] | 2.09 ± 0.046 |
| KLSEIILNINNSTSKNT [SWI1] | 2.96 ± 0.067 |
| KLSIAEERDRRRAQQGL [RPS4A] | 2.11 ± 0.06 |
| KLSNIWMQRQLIKGDAG [SRB2] | 2.93 ± 0.23 |
| KLTRELEKKFQDRHVIF [RPS7A] | 3.08 ± 0.14 |
| KLYKKIAKFERSEEEVT [YIL149C/MLP2] | 3.25 ± 0.1 |
| KLYTFLARRTDAPFNKV [RPL18A] | 1.78 ± 0.052 |
| KMIEKIEKMSTIVQLCK [YIL149C/MLP2] | 2.65 ± 0.092 |
| KMSDGFNGADIRNCATE [RPT4] | 3.43 ± 0.074 |
| KMYDYEEKEESNLAATK [RPN11] | 3.17 ± 0.074 |
| KMYSDDTLKDISTSFCF [BRN1] | 3.36 ± 0.086 |
| KNAVVRSKFGGDFLDFQ [ARP7] | 3 ± 0.13 |
| KNFDMLNSMEKDRISHE [PCI8] | 2.33 ± 0.069 |
| KNGLYQEAFKIYQHLAS [SRP72] | 1.81 ± 0.061 |
| KNPKFSNAFYSVLRDTL [SMC4] | 2.1 ± 0.084 |
| KNRRRIHGELKTYKEGI [SMC1] | 3.23 ± 0.13 |
| KNTSSMDFLNSMENTPK [GAL11] | 1.83 ± 0.059 |

| Sequence | protein stability index |
| --- | --- |
| KNVGNKSPEQCILRFLQ [SWI3] | 2.15 ± 0.062 |
| KNVLANSIWGSSLRKNA [ITC1] | 1.49 ± 0.057 |
| KNWQNVGSLVVKSSMGP [RPL1A] | 2.1 ± 0.046 |
| KPAFSFGATTNDDKKTE [YJL041W/NSP1] | 2.92 ± 0.099 |
| KPFLKKTQEYYTQYTND [CDC53] | 3.02 ± 0.061 |
| KPGRMPFNFTVTLFQMA [CDC53] | 1.65 ± 0.039 |
| KPMAFSNTTTHVPEKKS [MTR3] | 1.46 ± 0.053 |
| KPPTQKTDTKVSFRTHN [SRP21] | 2.52 ± 0.078 |
| KPQEIKDILVKTGITKK [PRE9] | 3.39 ± 0.089 |
| KPQRTNTLRMKHGTYDK [RPB2] | 2.74 ± 0.081 |
| KPSSPPDVKSLVQLSTM [SIR4] | 3.41 ± 0.11 |
| KPYKQVKQIAPAELEGL [FAS2] | 2.36 ± 0.061 |
| KQEIMMSDLFTFDWFIK [ISW2] | 2.85 ± 0.075 |
| KQEQEEKIKSKKINRRN [YCG1] | 3.4 ± 0.18 |
| KQERLKENEESLTPTQS [PRP28] | 3.13 ± 0.092 |
| KQINHQGEEEELIALNL [RPB4] | 3.34 ± 0.15 |
| KQLQLAMHNSKAASSTR [POP1] | 1.96 ± 0.057 |
| KQNSSSDINQNDDSSSM [YDL088C/ASM4] | 3.1 ± 0.17 |
| KQRTKKEDKSEAIDGNG [SNF2] | 3.55 ± 0.13 |
| KQTADWLAEKFQKETNM [PRP28] | 2.57 ± 0.2 |
| KRADISKRRITEELSIT [SMC1] | 1.46 ± 0.086 |
| KRDAKAAGSYYVEAQHK [RPL7A] | 3.21 ± 0.086 |
| KRINKFLDSVHKQGSSY [POP7] | 2.61 ± 0.04 |
| KRKLDIGKDTFVTRKSR [PRP8] | 2.93 ± 0.079 |
| KRLIAHDWLNALDGDLI [YCG1] | 2.18 ± 0.17 |
| KRLLYTRRFVNVTLVNG [RPS30A] | 2.03 ± 0.051 |

| Sequence | protein stability index |
| --- | --- |
| KRRKTHIHKHVKDEAFD [RET1] | 2.87 ± 0.11 |
| KRRVTNLEFNYTKPYPN [SMC2] | 3.12 ± 0.071 |
| KRVHTLLTLIVREYEQP [ISW2] | 3.28 ± 0.23 |
| KRVKSYMDKAKQYDNRI [LRP1] | 2.87 ± 0.047 |
| KRYANHTQDIIGGMRVD [RET1] | 3.11 ± 0.069 |
| KSAENIIKMTIPYAAKL [RET1] | 2.27 ± 0.1 |
| KSGKFCSHCGCVYVPNF [SNM1] | 2.48 ± 0.068 |
| KSIENPTQTKGNDAKPA [YLR335W/NUP2] | 3.12 ± 0.075 |
| KSKFNKSNRSYSIALSN [GAL11] | 2.85 ± 0.075 |
| KSKILRKVVFPFQLDVA [UBP6] | 2.23 ± 0.09 |
| KSKLFEWKSEFVVPTFG [SNM1] | 1.57 ± 0.058 |
| KSKSSLDGKFSLFHTAV [RPN2] | 2.86 ± 0.096 |
| KSLDEQLLLLSDERAKL [LRP1] | 2.73 ± 0.095 |
| KSLESQRYVKSVKSVKF [RPC34] | 1.26 ± 0.081 |
| KSLVQYIELLPNADDIR [DIS3] | 2.7 ± 0.15 |
| KSMKYVKKILPLYARYI [ECM29] | 1.38 ± 0.093 |
| KSNGLAPEIPEDLYYLI [RPS13] | 2.65 ± 0.081 |
| KSNGSSDDDNIGQSEEL [ISW2] | 3.3 ± 0.1 |
| KSNRSYSIALSNVAAIF [GAL11] | 1.76 ± 0.08 |
| KSNTIPVTSIPSTNKKL [GAL11] | 2.67 ± 0.076 |
| KSPPQFFYNISSIHWNN [SIN4] | 2.15 ± 0.042 |
| KSRGSDLQYLGEFSGKN [RRP6] | 3.13 ± 0.088 |
| KSRPDRPKPVSPPCYII [SNF5] | 2.93 ± 0.063 |
| KSSLSLRDHALSLTAFT [ITC1] | 1.63 ± 0.036 |
| KTAKEVAGAIRAGIIIA [RPS2] | 2.49 ± 0.14 |
| KTCAEVIGGNSLFHIVV [SMC3] | 3.05 ± 0.11 |

| Sequence | protein stability index |
| --- | --- |
| KTDEVIILGTNLYDGAE [BRR2] | 2.98 ± 0.068 |
| KTDFAKIINKPNELSQI [RPC82] | 3.09 ± 0.12 |
| KTFNKIQSQVFESLYNS [BRR2] | 1.57 ± 0.061 |
| KTGTKPAAVFTETLKHD [RPL4A] | 2.24 ± 0.077 |
| KTKAMSLSIEENIPVAL [POP1] | 2.92 ± 0.079 |
| KTMIKTIEKDKMKIQET [SMC2] | 2.85 ± 0.17 |
| KTPLLKQYLSASFSLKN [RPL6A] | 2.01 ± 0.051 |
| KTSSQTSLSSKDLSNYR [YMR153W/NUP53] | 2.67 ± 0.055 |
| KTVDSSIQPIESNIKMT [SSN2] | 2.47 ± 0.082 |
| KVAHTSYKRIYGEYPPT [PRE8] | 3.02 ± 0.062 |
| KVCECVCMHCGKLLLDE [RPO21] | 2.96 ± 0.082 |
| KVDINADSAVNRQTLMF [PRP28] | 3.32 ± 0.06 |
| KVKHDSQPFIKFLNFRP [SSN2] | 2.88 ± 0.06 |
| KVLGVKDMSPILGELKR [LRP1] | 2.71 ± 0.089 |
| KVLRKFRVQSQSNYGIY [NUT1] | 1.85 ± 0.053 |
| KVRLNASEREELALIEE [PRP8] | 3.14 ± 0.17 |
| KVYAQLLESYKTLSLKS [RPN7] | 2.04 ± 0.062 |
| KWDDLNEQLTLLSKKHG [RPN5] | 2.67 ± 0.099 |
| KWDNQSASRAKNMPVIY [RGR1] | 2.86 ± 0.13 |
| KYACLAIRKNGQIDFWY [SIN4] | 1.98 ± 0.067 |
| KYFTELSHYIRQCFQDN [MED1] | 2.38 ± 0.053 |
| KYISAELYAQLRENGLV [SNU114] | 2.91 ± 0.13 |
| KYNAFIASEVLIKQVPR [RPL1A] | 1.73 ± 0.085 |
| KYNVNISALTQTEIKDI [PRP8] | 2.6 ± 0.082 |
| LAANYLNIKPLLDAGCK [SKP1] | 1.83 ± 0.076 |
| LADDDEERFSELFKGYL [RPL5] | 1.59 ± 0.13 |

Same assay, conditions: pdr5∆

| Sequence | protein stability index |
| --- | --- |
| KLKEMQKVLNAHRQRAM [SMC4] | 2.14 ± 0.12 |
